Reference: the supplement of paper PMC12636428

Tested on: Saccharomyces cerevisiae
Experiment: transcriptional activation domain activity (GFP:mCherry ratio, weighted mean of sorted bins, harmonized to initial dataset scale) (arbitrary fluorescence ratio units); higher = stronger transcriptional activation
Conditions: beta-estradiol 1 µM; induction time 4 h
Summary of the method: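 Yeast diploids with a GFP reporter received barcoded protein tiles, fused to an estradiol-inducible synthetic transcription factor, at the URA3 locus. Cultures were diluted 1:5 into SC holding 1 uM beta-estradiol, incubated 4 hours at 30 °C, sorted into 8 bins on GFP:mCherry ratio, and sequenced for barcodes, with tiles under 50 reads discarded. Activation activity values come from the read-weighted mean of bin median fluorescence, averaged across barcodes and linearly placed on the initial dataset scale.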

## MILHSSYLPLGVPPFSIYYILHTLGHSINKITKLLLSNLILRFLNCCTQLIVR
  transcriptional activation domain activity: 53400

## MILIVFSLLLSFPMFLERVLFFPLSFLFFFSPSFCLSYTQPSPLTMPFFSYFC
  transcriptional activation domain activity: 68300

## MILKHIHSCHALASFVVSLHSFPLLFSCPSRGLCGIVALETVFLFFFFPLFQL
  transcriptional activation domain activity: 75600

## MILLPSLWLLSLVVIFPVCYFYIQKSFPFPSSLFCIVCPITIYIINILSSHVL
  transcriptional activation domain activity: 33900

## MILLQCIPPFFLFSFLYSFVFPSPLPTIYDLSFSVSFFLFLFPWLVEIQLCCC
  transcriptional activation domain activity: 52800

## MILLVSFFFLLLIFFFSIREFRSECIVNDFWSFVYLSAYIVLDVCRIFFFLFW
  transcriptional activation domain activity: 25600

## MILMIFTYLLLTIPVVVGLIVASLLHFNFIHLNVLYACSLTSLQLINPCMVLF
  transcriptional activation domain activity: 50000

## MILMLLLLLLLLLLLLVMVLLLLLVMVLLVVLLVLLWVLLLMLLWVLLGVLLG
  transcriptional activation domain activity: 16200

## MILNGELERCRESLHIVSEYVHSILRLNVLCLRLLYRRMDPSREPVDLFEVAV
  transcriptional activation domain activity: 54500

## MILRAFFLLTVYFVCSPFFFLIIYLLFYDRPDSTLSWIWIWIHTFLPSLLFPS
  transcriptional activation domain activity: 42500

## MILRIWGFHYLYMLVPGWYLCFRFSFFLFYFLFLFLLQFLHITLPFSCLVSFW
  transcriptional activation domain activity: 46200

## MILTLFALCFFFLDTSSCFLHFISIVSFLISLILCLFFFFFLVASEPFHFIPS
  transcriptional activation domain activity: 57900

## MILTSHLSFILFLFLFLFPFSFSSFLPFYLHYLFILPSILIFPSPPFLPSLFL
  transcriptional activation domain activity: 51200

## MILVQLYIYHHFLNYRCLLHVILFRLKLILPSSSLIFVLGSVESSGNHGTSYD
  transcriptional activation domain activity: 49200

## MILWARAWISLFLFLYLLFYLFVFSLDIPPFLLYTFFIFILLLCVFACTYRHK
  transcriptional activation domain activity: 49200

## MILWNWILEFHSQTSFTLLLFILFHFIFFAYVPLLTSCYSHLFSFSFSTVSFI
  transcriptional activation domain activity: 46900

## MILYTWFFLRSPFFIFGILWVHGLVDRFLFCHLLVVYFCHLVNFFIHLKYANE
  transcriptional activation domain activity: 55700

## MIMGKVVGSIPTVSNFLPFSFLFFFSSFLFSSLSSCEVVCLIISFFSFFHWLS
  transcriptional activation domain activity: 55200

## MIMILLVAVLYFLLFRFDLLGLFYCQLFLLSSHLRFVLSTLYLNGSHHLLFFF
  transcriptional activation domain activity: 34000

## MIMYKIYFYTHFRLFFYICFYVHVEFSKPILLHVVLKLIKQLVFLSTYHLFLL
  transcriptional activation domain activity: 47900

## MINCYAEVALFECCVMFILSPLPPFSLSPQYIFYTLLLYLHYQYFVYRNCALL
  transcriptional activation domain activity: 71500

## MINFWLFIFLSSSLLFLPFFFLYIFFNYYYFFLFTQYIMVTWFFENYQFANAW
  transcriptional activation domain activity: 56200

## MINKKTNPCKILFDPFSSFLFGNLILLSLFLFVDVIFSLPCFLYVCFVFFPSL
  transcriptional activation domain activity: 69200

## MIPFQTGQVMGMLNRIDRLPLKEILTYAMPYLLEKTNVSMIIRQYLWSTLGNH
  transcriptional activation domain activity: 44100

## MIPGVLLECSFVEFLSFLLDLLLLTLLWIMRLMMMLLLPLFLLLLLIFVYCCV
  transcriptional activation domain activity: 39500

## MIPLLSFYYYFYISTCKTELLFSPFIFYFLLFLYIYIKIYTYFLHTPFLLVFE
  transcriptional activation domain activity: 47700

## MIPLQVLSLIDAKNLILLLTKFFSCVALSSCLYWDSCYNLIHGYLVLYKIIYT
  transcriptional activation domain activity: 59400

## MIPLSHRKHKLISLPYLLVSSWLFLSVTLSIPLLQSYIAKHYSTGLVLFLLYF
  transcriptional activation domain activity: 71900

## MIPPIHSPSFLQSYICFMLILPLPLMSIIVFHPLYFFWLFLSFLLLDYYLLLL
  transcriptional activation domain activity: 23300

## MIPSSAPLNFFLPFPFQFWFFFDFFFLTVEQPFFLCVVFFLLAFYVMLLYFFI
  transcriptional activation domain activity: 17900

## MIPSVMIRTSDYSLVIILSLCLVLKMMLICIVCSIESYLTNLDKWLFCLILCK
  transcriptional activation domain activity: 51300

## MIPSYLSHGRAAIIAIRLVLALYFFWHPLVLFLSSLKLITPCICLHLLFAFWI
  transcriptional activation domain activity: 62500

## MIQTPLFYYLFYILFYFIFIFIYSLLGFFLIFYLFVLFSFHFCFPPPPPFSFF
  transcriptional activation domain activity: 46900

## MIRDTPKSPSHPPSARSSSSRASSTTSCLSSTSTPAARTSSSSTTARTPVPRP
  transcriptional activation domain activity: 28600

## MIRFPCLLLYIFAMVYLGVLFFSFFDSCFFFFLHLLGAGWVVHFFLDIFFFYI
  transcriptional activation domain activity: 70600

## MIRPFSIYSITLDVFPWLLNLFFLFFFLILFPLLRNFLFCVVSLIQNIQPLCF
  transcriptional activation domain activity: 30400

## MIRTLFLFFLFIIIFFFFFFFCFLLFFVFLFLFIFLIVVFTIRKSMNLGFVCV
  transcriptional activation domain activity: 42400

## MIRWVFFRGYLGQEGFLSFLFFFVFFSGLSLWERIGYGFFILPSFYMDLLFLA
  transcriptional activation domain activity: 58300

## MISFFCDIPVFSLLVPFLPLSFMFPMSPMFYYFFIYAVGCSIFLSLLFFSYVI
  transcriptional activation domain activity: 28100

## MISFFNWQVWGGFCGLLFIFFLFDFFLLEFGSTYHLLEDGLNLFLFWYFYDYD
  transcriptional activation domain activity: 43600

## MISFPLFDPVVFNPFLFYDILSSFCSCFSFFFSLLFFPILQYPFLFFSCFFIA
  transcriptional activation domain activity: 60100

## MISFVSIVSILLAKSAFLFYFLRQDSFLPNLVFCLCISLLLLLVCLLQWLLVC
  transcriptional activation domain activity: 53700

## MISIAGFYLFFLGYWRFWMLFINLIVGLLATIGHHVSGLACLIFFCGSSVRIS
  transcriptional activation domain activity: 35300

## MISIPFPFHFIFKYVWWYYHVLYCLLACLLACCSCTYMFYLPVLLMLLLLFGC
  transcriptional activation domain activity: 41900

## MISLFFFLFLYHIYVFLLLLLLYFLPSLPYPPIYTLYIVSLIIPHLVYLLQNS
  transcriptional activation domain activity: 31400

## MISLVYTGVDGEFGMLFGFGFWFCFLMGRRFTVFVFVFLDMFWGHVFCFVCIS
  transcriptional activation domain activity: 45600

## MISPFHFQSLFFILFLLFFLCAWCSGWAGLRFFTPHLVSIFFLFMDWQLDLVG
  transcriptional activation domain activity: 48500

## MISPIFPRNLIIHNITFSMLFSFFSFLFYTLYALFNFPVPFFLSSILTPLNIF
  transcriptional activation domain activity: 71200

## MISSAKLTLFAFFRSMQMQSISLGRNLKAFILRCVLLWPRILRSFRKVWSWYF
  transcriptional activation domain activity: 18200

## MISTLAMSLLETPIEPRTHAEICLEFWGIRLCSPITDINLAAFWNYYFKTIAH
  transcriptional activation domain activity: 45600

## MISWLLCFFDFRGDFLYGVLFFCTIFCFAVFGFFFFLQPSTFSFTIFFLCFFS
  transcriptional activation domain activity: 31000

## MISWLLCFFGFRGGFFYMVFFLICTIFCFAVFGFRFLQLSTFFFHNIFLMFFF
  transcriptional activation domain activity: 51900

## MISWLLRFFWLPGGLFFIWCFFSVPFFALRFCSCRHSFFTTFFLCFFYFYFVT
  transcriptional activation domain activity: 67100

## MITQILYLDLLHPLHCHFFFFFSFFSSLIVVSVIITRLYFFFFSHLVIFCPFL
  transcriptional activation domain activity: 54600

## MITRCHLIIFLFWLLLLLLLFRCWATFLCISAWLFAKQEKQTFCQPCLLIMRV
  transcriptional activation domain activity: 38200

## MITRRTGGNSGNWVPSIRVQEGVLTKGFRPINMRSELVRLHEVVILVVGMEMD
  transcriptional activation domain activity: 47100

## MITTLFSFLLVFFPFFLFRFFLLLLLLNLFLLLLSHFLSLYHQPISPIPPRHH
  transcriptional activation domain activity: 74200

## MITTLYHHVRYILIRQPRRPVSLLDQPAVLNYLYVLLYHTIVTFNILTPAVYW
  transcriptional activation domain activity: 49600

## MITVALYIIGRGFFSFFFIFCHFTILVFLFLAAYFFLFFSCPFLLLFYFFWFT
  transcriptional activation domain activity: 54200

## MITVLSVIPLLLLLLLLLLLLLLLLLLLLISPLFRLGSLFVFCPYILFRLWWV
  transcriptional activation domain activity: 42000

## MITYIILLLFFLLYYSIILFTSFSFSFFITFILHTITTLPVFILSCCSTFFFF
  transcriptional activation domain activity: 66600

## MITYILRLGFDYLPPLALWIAIVLVHYTYVCCFLVVACENTCRWHMVQFNLRH
  transcriptional activation domain activity: 73300

## MIVFLFWVIGINLDCNCWFSLFLILLMRVMDLMSYGWIIEVFFFLLNFYYLLF
  transcriptional activation domain activity: 53700

## MIVFSPISFVGTLWVVSCCLFFKFPLPLPFPLPLPFFFFVSLFFLYLSRKIRA
  transcriptional activation domain activity: 28200

## MIVLCASFFYILSSLSLFFFFLTLPIMHFLPFSRLFIFSCFLFPLYLFTSFFL
  transcriptional activation domain activity: 31000

## MIVLVLLFLVFCLLLLVGMVDERGMAGDMYKLYRTPASCRVLALSNPIVRGAW
  transcriptional activation domain activity: 52800

## MIVMNQPNYIFDEFAIIISVYISSISNLAFYFGYDFLVLLFLQNLLEFIIMCY
  transcriptional activation domain activity: 76800

## MIVRLSSVPVSGCSFVVIEALLDFLVLPLRHFNLFIAPTSFFSHLYVFFFFGR
  transcriptional activation domain activity: 56700

## MIVVVLCLPSALTHLGCLFYHDPSSPFALVTFSVSLIIILPNLGVILFGFFNI
  transcriptional activation domain activity: 48600

## MIWCSFLLALSWSYFCDLPCFFFFFFFFFFFFFFFADIYCSFLSFKLITPISF
  transcriptional activation domain activity: 52600

## MIWREFFLFFLFFFFLFGIYGLRVAGLDYFVYGDLFVIINISYLFFWWVYAIY
  transcriptional activation domain activity: 45900

## MIWRYVWYTLVLGCLFCCRPNYSLLVPNTIDLHRLWLGFRFQILFVAWGVYLV
  transcriptional activation domain activity: 58900

## MIYACGLICFYFFFFFLYFFPFCISFHIFLFSFLYPSCSFSFLQHCQVGTGVC
  transcriptional activation domain activity: 48900

## MIYGWSIFFFFFFFALHVYIRVFLWGRFCLRVVWVRLFLFHFSGWGCNFGGFV
  transcriptional activation domain activity: 49700

## MIYLASFLLLTVDSSIWSVPITIFIPYTIYLFPPHTYICVLFARILIFHLLSF
  transcriptional activation domain activity: 61200

## MKACLRCLVFLLGCTSPWCFTRYLALEHFTLFWIDADLWWQVYRFSILVLLSY
  transcriptional activation domain activity: 44400

## MKAEYITLINLLVHPSFVLWESPLPTLSFFFFFFFFLAWSPFRVFSLFVIPSL
  transcriptional activation domain activity: 50300

## MKDSHTARSDAVVFAIAVGRPFFFAAVLLRLLATETLGSSIALGVIGLVFIYC
  transcriptional activation domain activity: 42400

## MKELSFFPISISIQRYSHIRWVLLHCTNYLISFVYHCYVIILSVFFFLYIFTA
  transcriptional activation domain activity: 76900

## MKEPVDDNVLQEPVPFEDFKFSFGMDPDFSFPLEPTLPTPQLSFMQDPFLLFP
  transcriptional activation domain activity: 116000

## MKFCFIVWLSCMCIYFAKVIVVFLIALCLDNIFPFHIPNTKLLIPSTHFMITW
  transcriptional activation domain activity: 57500

## MKFLFILCCHILPYVPIFYLMSLSSIFLHFTLLFIYLITLFYTFAYIFIFSFY
  transcriptional activation domain activity: 50400

## MKFLPFRFADLQANNFILFYFLYLMLACYLYPICIYTGKLFVIFPFIFLFFVP
  transcriptional activation domain activity: 55000
